From the DeepSol protein solubility set

experiment: soluble on expression in E. coli; label from the status in PepcDB or PDB records

| Sequence | soluble on expression in E. coli |
| --- | --- |
| MSKNLTITHESTFNGNKVYIDKEGLVVEYLEGIESVLENALEQYARLFIVRVDLNLPTDFRGDDSAVMTRFFRSLKSQVAAYRRRSARLNRKPYRETTIRYVWAKECDTSTSSHYHVALIFDRNIFRSLGDFGEYQQSLANRIRNAWKRSVEAMYSGKEKPAIHFSKQGQYHLLRNSEEFGEVFQSVFYRLSYLAKRRTKHFGKRMNNFGHSHK | not soluble |
| MSKQQEQDTPSFGEIRQRLQAGEDFDLAHRLQEREYEMYYNHNRNVNGTIVGDRKKTREEQIAEDEHAASLRRLGHAERSMSDEEYARQLQEEMDRLDASIQMDKEAQLREDARMAWLLQQESSATPAPSRHSGDLISFEDQPQQSSNTTTSSSCQSANNS | not soluble |
| MSKRNTPQRRHNILALLNEQGEVSVDELAKRFETSEVTIRKDLAALESNGLLLRRYGGAITMPQELVSDIGQPVSLYKQAIARAAVQRIREHARIIIDSGSTTAAMIPELGLQPGLVVMTNSLNVANALSELEHEPVLLMTGGTWDPHSESFQGQVAEQVLRSYDFDQLFIGADGIDLARGTTTFNELLGLSRVMAEVAREVVVMVESDKIGRKIPNLELPWSSVHTLITDDRLPLEVRDQIQARGITLICAAVSLEHHHHHH | soluble |
| MSKRYAVVLAAGQGTRMKSKLYKVLHPVCGKPMVEHVVDQISTLNVDKVVTIVGHGAEKVQEHLAGKSEFVKQDEQLGTAHAVLQAKAELAGKDGVTLVVCGDTPLIEASTMEALLKYHHEKRAKATILTTVIEDPTGYGRIIRDDLGIVEKIVEHKDATEKEQRISEINTGTYCFDNKALFEALENVSNDNVQGEYYLPDVIKILKDSDEVVAAYRMESFEESLGVNDRIALAEASKLMQRRINENHMRNGVTLVNPESTYIDIDVKIGQDTVIEPGVMLRGKTVIGDDCVVTSGSEIVNSVIGERVHVRTSSIFESKVGDDVQIGPYAHLRPESDIHDHVKIGNYVETKKAVVGEGTKLPHFIYMGDAEIGKNVNVGCGSIAVNYDGKNKAKTIIGDNVFVGCNSNLIAPVKVGDRAFIAAGSTITKDVPEDALGIARAKQDNKLGYAKHLNHSK | not soluble |
| MSKSDLRMKSNADKVIANLKKMTPIAEKEGAAMVNDSLAKIYQLIVPMTPIKSGDLRRGYRIIKARKLSSGRIVGALINNEKYFRYVNDGHRTKNGGFVKGRFMLQKSNKLANATYIPKRFKQMAIIIVKKG | not soluble |
| MSKTFKDYGTGSGKDVIADEKPFSILLMGVDTGSSERTSKWEGNSDSMILVTVNPKTKKTTMTSLERDILVKLSGSKTNDQTGYDAKLNAAYAAGGAKMAIMTVQDMLDIKIDKYVQINMEGLVQLVDAVGGITVTNHFDFPISIEEHEPEFTASVEPGTHKINGEQALVYSRMRYDDPDGDYGRQKRQREVISKVLKKILALDSVSKYRKILSAVSKNMQTNIEISSSTIPKLLGYSDALKSIRTYQLKGEGTTIDGGSYQLVTSKELLKAQNRIKGQLGLKKSTAENLKTTASLYENFYGGDTSIYDSSSSASDYSSSGNYSGSSSDYGSSSSYGSNSSSGSSSDYSGQNSYNQGNYQQPAAGTGIGNLEHHHHHH | soluble |
| MSKYKIFVDGAVGTTGLGIFERLRAAKDIELLTLADEQRKDLKARLANVAAADLTLLCLPDTASKQLVLHAPPSAKICDTSTAHRVDPAWVYGFAELSGQFNNIQTATRVAIPGCHATGYIALLRPLIERHYLNADYPFTCHSLTGYSGGGKAMIADYQAPIRDDKFKAPRMYGLTLHHKHLAEMCAFTGSSNPPIFTPIVADYYSGMLVNVPLPLAAFTQEANDGEKISGILADYYREASLINVHYVNDLPTDGMVAANSLAGKDRLDIFVYANQTQVVLSAIFDNLGKGASGAAIQCMNIMLGRDQLADLHI | not soluble |
| MSLAAGFAPLADIPVGPDYVIGPGDRIILNLWGSAEGTHELEVNRSGEIVLPRVGSVKVWGITFERLPEVLKTHLSKIYKNFDLNVTMGKLRVIKVYVVGEVKMPGDYNLSPLSTLINALAASGGPLKTGTLRNIKIKRGGKVVETVDLYDFFLKGDKGKDIRLQPGDTIFVPVIGRVAGIAGNVKRPAIYELKDEKNLGDLVELAEGFLPTGYLQRVQITRVDAHDKRMVADFNIDPKGAGEGHHHHHH | not soluble |
